The record followed here is patent US20160287687A1 (IMMATICS BIOTECHNOLOGIES, published 2016).

Bounds are passed on as bounds.

To fix the notation:
B1: YVLTQPPSV (SEQ ID NO: 68) (peptide)
peptide: YVLTQPPSV
notes: source genes IGLV3-21, IGLV2-14, IGLJ3, IGLC1, IGLC2

In the experiment the target is T1, HLA-A*02:01 (human).
T1 construct: MHC monomers first loaded with a UV-sensitive peptide (not identified) that is cleaved by UV light and exchanged for the test peptide; captured on streptavidin plates, detected with anti-β2m; also called peptide-receptive MHC molecules; MHC class I
Kind of experiment: UV-ligand exchange + anti-b2m ELISA; peptide exchange yield grade (+ >=10%, ++ >=20%, +++ >=50, ++++ >=75%). From the text: Candidate peptides for T cell based therapies according to the present invention were further tested for their MHC binding capacity (affinity). The individual peptide-MHC complexes were produced by UV-ligand exchange, where a UV-sensitive peptide is cleaved upon UV-irradiation, and exchanged with the peptide of interest as analyzed. Only peptide candidates that can effectively bind and stabilize the peptide-receptive MHC molecules prevent dissociation of the MHC complexes. To determine the yield of the exchange reaction, an ELISA was performed based on the detection of the light chain (β2m) of stabilized MHC complexes. The assay was performed as generally described in Rodenko et al. (Rodenko et al., 2006).
96 well MAXISorp plates (NUNC) were coated over night with 2 ug/ml streptavidin in PBS at room temperature, washed 4× and blocked for 1h at 37° C. in 2% BSA containing blocking buffer. Refolded HLA-A*02:01/MLA-001 monomers served as standards, covering the range of 15-500 ng/ml. Peptide-MHC monomers of the UV-exchange reaction were diluted 100 fold in blocking buffer. Samples were incubated for 1 h at 37° C., washed four times, incubated with 2 ug/ml HRP conjugated anti-β2m for 1h at 37° C., washed again and detected with TMB solution that is stopped with […]. Absorption was measured at 450 nm. Candidate peptides that show a high exchange yield (preferably higher than 50%, most preferred higher than 75%) are generally preferred for a generation and production of antibodies or fragments thereof, and/or T cell receptors or fragments thereof, as they show sufficient avidity to the MHC molecules and prevent dissociation of the MHC complexes.
As to SLFGKKYIL (source gene FHL2) [SLFGKKYIL (SEQ ID NO: 36)], the peptide exchange yield lay in the range of 20 to 50%. Consider LLVPAHLVAA (source gene ESM1) [LLVPAHLVAA (SEQ ID NO: 25)], for which the peptide exchange yield is 20 to 50%. For TLLKTIIKV (source gene CC2D2A) [TLLKTIIKV (SEQ ID NO: 66)], the peptide exchange yield lay within 20 to 50%. Turning to ILMDFSNSM (source gene ITGB4) [ILMDFSNSM (SEQ ID NO: 56)], the peptide exchange yield was 50 to 75%. Turning to QLFYTKIFL (source gene PLOD1) [QLFYTKIFL (SEQ ID NO: 30)], the peptide exchange yield lay within 20 to 50%. With RLLGEVQAL (source gene HSF4) [RLLGEVQAL (SEQ ID NO: 3)], the peptide exchange yield is 20 to 50%. Take SLKNNVVSV (source gene TGFBI) [SLKNNVVSV (SEQ ID NO: 59)]: the peptide exchange yield lay within 50 to 75%. For FLVDFEQSHL (source gene CYP2J2) [FLVDFEQSHL (SEQ ID NO: 58)], the peptide exchange yield was no less than 75%. Turning to FIADLVVGL (source genes ENO1, ENO2, ENO3) [FIADLVVGL (SEQ ID NO: 28)], the peptide exchange yield fell in the range of 20 to 50%. Turning to SLMGILLRI (source gene CARD8) [SLMGILLRI (SEQ ID NO: 61)], the peptide exchange yield lay within 20 to 50%.

Turning to KLASMLETL (source gene PRKCDBP) [KLASMLETL (SEQ ID NO: 80)], the peptide exchange yield was 50 to 75%.

Take FLLEIRQTL (source gene SNX13) [FLLEIRQTL (SEQ ID NO: 53)]: the peptide exchange yield was in the range of 20 to 50%. With GLSEVLVQI (source gene MICAL3) [GLSEVLVQI (SEQ ID NO: 46)], the peptide exchange yield fell in the range of 50 to 75%.

On to ALADIVWRA (source gene FAM188B) [ALADIVWRA (SEQ ID NO: 79)], for which the peptide exchange yield lay within 50 to 75%. Next, SILDAVQRV (source gene PXDNL) [SILDAVQRV (SEQ ID NO: 52)]: 20 to 50%; IIYGGSVTGA (source genes TPI1, TPI1P1) [IIYGGSVTGA (SEQ ID NO: 65)]: 20 to 50%; GLFHKQVTV (source gene PDZD2) [GLFHKQVTV (SEQ ID NO: 74)]: 50 to 75%. As to ALDGHLYAV (source gene KBTBD11) [ALDGHLYAV (SEQ ID NO: 71)], the peptide exchange yield lay within 50 to 75%.

Turning to ALVAKGLVQA (source gene AKR1A1) [ALVAKGLVQA (SEQ ID NO: 54)], the peptide exchange yield was 20 to 50%.

ILADLLPSL (source gene DHRS7B) [ILADLLPSL (SEQ ID NO: 69)]: the peptide exchange yield is 20 to 50%. As for VLIVEVPGV (source gene ADCY5) [VLIVEVPGV (SEQ ID NO: 49)], the peptide exchange yield is 50 to 75%. FIADVVEKI (source genes HTRA1, HTRA3) [FIADVVEKI (SEQ ID NO: 33)]: the peptide exchange yield lay in the range of 20 to 50%. On to FTLGTTVFL (source gene NDUFC1) [FTLGTTVFL (SEQ ID NO: 24)], for which the peptide exchange yield was 50 to 75%. YLKDELDEL (source gene SOGA2) [YLKDELDEL (SEQ ID NO: 43)]: the peptide exchange yield fell in the range of 50 to 75%.

VVASNIMEV (source gene PFKFB3) [VVASNIMEV (SEQ ID NO: 48)]: the peptide exchange yield was in the range of 20 to 50%. The value for VLFELSKTV (source gene ATP11A) [VLFELSKTV (SEQ ID NO: 6)] was 50 to 75%; that for YLLNLNHLGL (source gene TRAM1) [YLLNLNHLGL (SEQ ID NO: 39)] was 50 to 75%; that for VLAPVILML (source gene ABCC3) [VLAPVILML (SEQ ID NO: 37)] was 20 to 50%. Consider YIQEVVQYI (source gene PLCB1) [YIQEVVQYI (SEQ ID NO: 23)], for which the peptide exchange yield was in the range of 50 to 75%. Regarding ILLDLEQAL (source gene CUL7) [ILLDLEQAL (SEQ ID NO: 29)], the peptide exchange yield fell in the range of 50 to 75%.

In the case of YSLEKVFGI (source gene MAGED2) [YSLEKVFGI (SEQ ID NO: 72)], the peptide exchange yield lay within 20 to 50%. The value for SLQKEILYL (source gene ATG2B) [SLQKEILYL (SEQ ID NO: 57)] was 20 to 50%; that for GLLKTLQKL (source gene CLIC4) [GLLKTLQKL (SEQ ID NO: 41)] was 20 to 50%. On to VLAGPAFLVQL (source gene SLC47A1) [VLAGPAFLVQL (SEQ ID NO: 62)], for which the peptide exchange yield fell in the range of 50 to 75%. With LLDVLAPLV (source gene COL18A1) [LLDVLAPLV (SEQ ID NO: 67)], the peptide exchange yield fell in the range of 20 to 50%. As for VLLDTILQL (source gene HSF2BP) [VLLDTILQL (SEQ ID NO: 38)], the peptide exchange yield was 50 to 75%. Regarding SLIKHKIML (source gene ATP6V1A) [SLIKHKIML (SEQ ID NO: 77)], the peptide exchange yield was in the range of 20 to 50%. Next, YLALILPVL (source gene SLC16A4) [YLALILPVL (SEQ ID NO: 55)]: 20 to 50%. B1: the peptide exchange yield was 20 to 50%.

In the case of TLAEVRAVQEI (source gene SMYD2) [TLAEVRAVQEI (SEQ ID NO: 47)], the peptide exchange yield was 50 to 75%. Take VLADDHLIEV (source genes PDZK1P2, PDZK1, PDZK1P1) [VLADDHLIEV (SEQ ID NO: 76)]: the peptide exchange yield lay within 20 to 50%. Turning to FLSQDIITV (source gene REN) [FLSQDIITV (SEQ ID NO: 4)], the peptide exchange yield lay within 50 to 75%. For the molecule ELNNQNFYL (source gene CIT) [ELNNQNFYL (SEQ ID NO: 34)], the peptide exchange yield lay in the range of 50 to 75%. On to VILDTGTIQL (source gene NAT8) [VILDTGTIQL (SEQ ID NO: 42)], for which the peptide exchange yield lay within 20 to 50%.

Consider FLIKSINLV (source gene KBTBD3) [FLIKSINLV (SEQ ID NO: 75)], for which the peptide exchange yield was 50 to 75%. Turning to ALLDTVVQA (source genes CACNA1I, CACNA1H) [ALLDTVVQA (SEQ ID NO: 78)], the peptide exchange yield lay in the range of 20 to 50%. On to GLIEDHFDVTV (source gene ERAP1) [GLIEDHFDVTV (SEQ ID NO: 63)], for which the peptide exchange yield was in the range of 20 to 50%. On to ALLGIPLTL (source genes KCNK3, KCNK15) [ALLGIPLTL (SEQ ID NO: 45)], for which the peptide exchange yield was 50 to 75%. For the molecule SLSDLLVSL (source gene OPN3) [SLSDLLVSL (SEQ ID NO: 27)], the peptide exchange yield is 50 to 75%. In the case of YLYPNLTRL (source gene SLC6A13) [YLYPNLTRL (SEQ ID NO: 5)], the peptide exchange yield lay in the range of 20 to 50%. The value for VLFGLDPAVIKV (source gene HSPA12A) [VLFGLDPAVIKV (SEQ ID NO: 31)] was 50 to 75%; that for FLLSLIDRL (source gene EGLN3) [FLLSLIDRL (SEQ ID NO: 7)] was 50 to 75%; that for ALFSFVTAL (source gene TTYH3) [ALFSFVTAL (SEQ ID NO: 44)] was 50 to 75%. On to SLSDHIVLL (source gene ITGA3) [SLSDHIVLL (SEQ ID NO: 50)], for which the peptide exchange yield lay within 20 to 50%. ILWKDIEYV (source gene SYT9) [ILWKDIEYV (SEQ ID NO: 60)]: the peptide exchange yield lay within 50 to 75%.

Consider YIQEHLLQI (source gene IVNS1ABP) [YIQEHLLQI (SEQ ID NO: 40)], for which the peptide exchange yield was 50 to 75%.

On to GLDGIPFTV (source gene TRIP6) [GLDGIPFTV (SEQ ID NO: 73)], for which the peptide exchange yield was 50 to 75%. In the case of VLHSLQTQL (source gene ANGPTL4) [VLHSLQTQL (SEQ ID NO: 35)], the peptide exchange yield was 20 to 50%. LLAASVALA (source gene NPTX2) [LLAASVALA (SEQ ID NO: 64)]: the peptide exchange yield lay in the range of 20 to 50%.

As for NLWPMILTL (source gene ITGA3) [NLWPMILTL (SEQ ID NO: 51)], the peptide exchange yield lay within 50 to 75%.
